Test results as given in patent US20160333072A1.

Columns and labels:
[1] = molecular target: 4-1BB (CD137) on human MART-1 reactive T cell clones (TIL 209) (human) (UniProt Q07011); assay: cell-based or functional assay
[2] = molecular target: human SLAMF6 (NTB-A) on human tumor infiltrating lymphocytes / T cells (human) (UniProt Q96DU3); assay: cell-based or functional assay
Chain of human SLAMF6 (NTB-A) on human tumor infiltrating lymphocytes / T cells (human) (Q96DU3 22-332): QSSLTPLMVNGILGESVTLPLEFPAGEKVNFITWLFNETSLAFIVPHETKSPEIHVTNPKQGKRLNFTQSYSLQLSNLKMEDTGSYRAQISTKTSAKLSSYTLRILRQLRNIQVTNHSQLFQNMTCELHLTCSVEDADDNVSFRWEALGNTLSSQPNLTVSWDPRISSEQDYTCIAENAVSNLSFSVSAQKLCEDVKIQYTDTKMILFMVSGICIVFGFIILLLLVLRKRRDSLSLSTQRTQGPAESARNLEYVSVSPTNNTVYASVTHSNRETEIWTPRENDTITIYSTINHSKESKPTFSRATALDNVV

Chain of seSLAMF6 (SEQ ID NO: 3; Leu 28-Lys 225 of Q96DU3 fused with a polyhistidine tag at the C-terminus) (Q96DU3 other isoform, or with tags, fused parts or gaps limits assumed): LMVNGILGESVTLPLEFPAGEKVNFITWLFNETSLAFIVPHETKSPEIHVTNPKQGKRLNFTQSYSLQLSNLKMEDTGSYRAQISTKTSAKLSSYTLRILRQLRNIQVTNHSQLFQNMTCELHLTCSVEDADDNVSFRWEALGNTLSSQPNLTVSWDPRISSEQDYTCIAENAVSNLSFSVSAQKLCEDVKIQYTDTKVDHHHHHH
Chain of 4-1BB (CD137) on human MART-1 reactive T cell clones (TIL 209) (human) (Q07011 24-255 limits assumed): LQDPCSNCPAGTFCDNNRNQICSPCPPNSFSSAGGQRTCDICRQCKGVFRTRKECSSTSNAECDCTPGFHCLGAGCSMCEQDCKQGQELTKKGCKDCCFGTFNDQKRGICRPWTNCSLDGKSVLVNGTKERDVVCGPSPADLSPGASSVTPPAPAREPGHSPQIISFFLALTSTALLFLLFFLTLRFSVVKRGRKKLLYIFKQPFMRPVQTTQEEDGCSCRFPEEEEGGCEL

IFNγ secretion of TIL 209 co-cultured with mel624/4-1BBL in CM (mel624/moc: 4,120) [1] [pg/mL]	IFNγ secretion of TIL 209 co-cultured with mel624/4-1BBL with BSA (mel624/moc: 3,160) [1] [pg/mL]	CD107a surface expression (lytic degranulation) of human TILs 209 after REP with seSLAMF6 50 µg/ml, co-culture with 526mel [2] [fold]	Substance	ratio of cell death and apoptosis (PI / Annexin-V, flow cytometry) of melanoma-activated TILs 209 after IL-2 withdrawal, seSLAMF6 10 µg/ml [2] [%]	ratio of cell death on Day 7 (PI / annexin-V), TILs expanded by REP-IL-2, then seSLAMF6 50 µg/ml [2] [%]	ratio of cell death on Day 7 (PI / annexin-V), TILs expanded by REP-seSLAMF6, then seSLAMF6 50 µg/ml [2] [%]
8600	10500	–	4-1BBL expressed on transfected 624mel melanoma cells (mel624/4-1BBL) (from UniProt P41273 1-254) (ligand)	–	–	–
–	–	2	seSLAMF6 (SEQ ID NO: 3; Leu 28-Lys 225 of Q96DU3 fused with a polyhistidine tag at the C-terminus) (from UniProt Q96DU3 28-225) (receptor)	4	7 to 11	7 to 11
